The series is described as follows: soluble on expression in E. coli; label from the status in PepcDB or PDB records.
Regarding “QLFSNNLLQENAHKYVREVIGSIPNTQVIRDQLLEENNRKHIEVVLIGATVSPAQIDSAKTKLSSYGLSGVELNIKQGFGYEQEETDVNELKSVLLKDLYDNGEKIIRNQQRQIDSLRNVLNFYNRFSSMESEIAQELQ”, the “soluble on expression in E. coli” value is given as “not soluble”.

Turning to “QLIAATGCPTGIAHTYMAQEALEQAAKRKGITIKVETHGQIGIENELTPAEIQGAEAVIIAADKDVQAERFAGKRIIDVPVSVGIKEADRLIEEALAGKGSIA”, the “soluble on expression in E. coli” value is listed as “not soluble”. With “QPALPEAMYQLLSGAHYRTSPLDLRRMMDAPGQAFRCARTGGAVAGALWLVAEGGLSPELSRAVWAGFRRPRGNLVAQSLAAHGGSPLAATLRGLRVSRIAVHPTRQREGLGRKMIADIAADAAGYDYLSVSFGYTAELWRFWQRCG” the entry was “not soluble”; with “QRSHVASCSHSLSVIQFNLFYENSDINQFINYLLRHPADLVVMQELTPRVGSLLHMLDDVYPHYHGGQRDVGYPSNLMILSRHPITEVSVYRAPNGQEVIRAVWLPKGQAPITLFAAHPPSPRTSELWHQRNALVRTIETLTALYPEPEVLVVGDFNLSSVSPRFSTLFPSFQTAPVTSWPTNIKGINVPEPMMIGIDHLWLKSEQGQRIICSRESSALPQGSDHRMVTTQIGVHIP”, “not soluble”; with “QSAYSRIEAESYSNQSGIQTETCSEGGEDVGFVENGDYTVYNNVDFGDGVGGFQARVASATSGGNIEIRLDSSTGTLIGTCPVAGTGDWQTYTDAKCTVSGVTGKHDVYLVFKGDSGYLFNLNWFTFSE”, “soluble”. The entry for “QSKTATVFLHGYNGGAYSTNYLIRKAEKAGAAQKALVVHVYKNGVMAFKGYWQKSIKNPMVQVVFQDNHASQKAQIYWLHQVLVQLKAKYGVKAYNAVGHSLGANDIVNQALKYGHDKRLPTLNKIVTIGGPFDGLTGFLSTQTEATVRRLDVKPSRFTKHFSEMLKYRHNFPDNVKLLNVYGDTNTGYNNDGFVGVASARSIRYLLRGKLTQYQEAFYSGEQAAHCALNQNPSVAHKMIAFLW” is “not soluble”. The entry for “QSPAEIASFSPRPSLADSKAVLNQAVADLSVAHSILHQVHWYMRGRGFMIWHPKMDEYMEEIDGYLDEMSERLITLGGAPFSTLKEFSENSQLKEVLGDYNVTIEEQLARVVEVFRYLAALFQKGFDVSDEEGDSVTNDIFNVAKASIEKHIWMLQAELGQAPKL” is “soluble”. Take “QTLLNVTLESESMAVDEVVVSARRLNRNDLGISDKEMVSATQKVDMEKLIAAAPVVSIEEALQGQLGGVDIVLGGDPGSRSAIRIRGTSTLNASSDPLIVIDGVPYPTEISDDFNFSTATEEDLGALLNISPNDIASVEVLKDASATAIWGTQGANGVLVIKTKQGT”: the “soluble on expression in E. coli” value is recorded as “not soluble”. As for “QVRLVESGGGVVQPGGSLRLSCEGSGFKFGDHGIHWVRQAPGEGLQWLTVISSDGTDERYTDSVKGRFTISRDNSKNTMSLQMNNLRPEDMGLYYCARDGKCGGGRCYSGLLDYWGQGTMVTVSSASFKGPSVFPLAPSSKSTSGGTAALGCLVKDYFPEPVTVSWNSGALTSGVHTFPAVLQSSGLYSLSSVVTVPSSSLGTQTYICNVNHKPSNTKVDKKVEPKSCDKTHTGLEHHHHHH”, the “soluble on expression in E. coli” value is “soluble”. With “QYVKPELPDVATLKDVELQTPMQVFSQDGKLIAQFGEKRRIPVTYDEIPQDLIHALIATEDSRFYEHPGIDPIGITRAAVVVALSGSAKQGASTITQQLARNFFLSNEKKLMRKIKEIFIAIHIEQLLSKQEIMELYVNKIFLGYRSYGFGAAAQVYFGKSLNELSLSEIATLAGMPKAPSTMNPIYSLERATKRRNVVLMRMLDEKYITQEQFDEARNEPIIARYHSAEIEVSAPYVAELARAWAVKEYGEEKAYTSGLNIYMTVDSKLQDAANKAAVNNLMAYDERHGYRGAEKVLWKEGEAAWDAEQIEKHLKGQPTYGDLYPAVVTKVEGKTAQVVVKNNDAQTIPWTGINWARKFLTDNRQGSTPKSAQEVLAAGEQIWVRELTTTDEDGNTQSSWKLSQVPSANT” the entry was “not soluble”; with “RFTPRWIVRFLVENSLGRLWAEMHPDSRLKDSLSYLVPIENSQAHPLKLVRDITFLDPSCGSMHFGLVAFDLFAEMYREEFEKAGQPGWPENPSVNAEDEIASSIIAHNLHGIDIDLRSVQISALTLLLRARTLSPKCAFTDRNLACANVEQTSGGKLETLIAAAKFSHPIYERVLRTLAAEMKDSDQLGSLLRLERSLERLVIEERRKAEENKQFLLSFPGISPEQFDTQAGIEEFFDLLSDQLLRHLDFFVRASREMGGDPGHIVNEAAKGLRYMQLVSHHYDVVATNPPYMSRRNMSDVIAKHLDKHYPETKGDLYAAFIARCLELVAPQGKVAMVTQQSFMFIGTYEKFRSNLLSRVTVETMAHLGPKAFPNITGEKVNTTAFVIRREPDG”, “not soluble”. With “RGDSLNYRLLRPEVEKTGLQYPLVLFLHGAGERGSDNEKQLTHGGQMFLNPVNREKYPAFVLVPQCPEKDYWAYTSRPSSFIPSEMPVGQEITPVLRAVKELLDTYLDLPQVDRNRIYVVGLSMGGMATYDLAVRFPDTFAAAVPICGTVNPVRLADAANVRFRIFHGDADNVVPVEGSREAYKALKNLGAEVEYIEFPGCNHGSWNPAFNYPGFMEWLFAQRK” the entry was “not soluble”; with “RGVLEGTVRIGALPLSRTRLLPSAIAAFLAQHPGITLMTNESPYESLVADMRAGNIDFIIGALRQDEDLPDLCSEALFEEDMLILLRNNHPLLRHPDPRSQLATAQWVLPRANAPARNLLDKAFVTLGLPLPQPTVETGDAAMVR”, “not soluble”.

Turning to “RIIEINPEEGWVRVEAGVIKDQLNQFLKPYGYFFAPELSTSNRATLGGMINTDASGQGSLVYGKTSDHVLGLRAVLMGGDILDTQAVPVALAETLGNTPSTVGRIYNTVYQRCKAQRDLIIDKFPKLNRFLTGYDLRHVFNDEMSEFDLTRILTGSEGTLAFITEARLDITRLP”, the “soluble on expression in E. coli” value was “not soluble”. The entry for “RIRKIIAGYQTELEASQEQEKKARQEKDELMRNMAHDLRTPLTGVMTYVDVMKLENEAYAENMKNLNFISEKVLDIRTQVDNLLDFSIAGSQRPVELDASMDVEYIFGDYLSDVCAQLMKSNYEVDAEGISFKQVKVAVNMAFLTRIFSNLTDNIYKYADNKKPVVMKTAFTKKTFSVEIGNGVCDNKTLLKSAGIGLKSVDAMMQRMNGSMSFKREHGKFWVKLEFPIV” is “not soluble”; for “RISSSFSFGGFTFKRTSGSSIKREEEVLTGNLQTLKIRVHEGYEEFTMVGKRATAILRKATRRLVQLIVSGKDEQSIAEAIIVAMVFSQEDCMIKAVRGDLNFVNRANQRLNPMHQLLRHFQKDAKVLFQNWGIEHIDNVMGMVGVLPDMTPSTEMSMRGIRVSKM” it is “soluble”; for “RMSEQSICQARAAVMVYDDANKKWVPAGGSTGFSRVHIYHHTGNNTFRVVGRKIQDHQVVINCAIPKGLKYNQATQTFHQWRDARQVYGLNFGSKEDANVFASAMMHALEVLNS” it is “soluble”. The entry for “RPAVFPRMGVLPARVALLGQGQHWGVDFCLNVFRANFAEDREIQSEDVVRDLLRAQDLDADALIAQARQESTKEALRKQVDRARALGIFGAPTFMVDGEMFWGNDRLED” is “not soluble”; for “RSFTAFLLFLPVGFLYPLAKKKELALQRQEELRRQFKEAVLILSSSLGAGYSVENAFAGSLRELEELYGREGMITKEFSYIAHQLRMNRTVETLLAEFADRSGLEEIKNFSDIFAVSKRSRGELVSVVNHTVHVISDRLQVREEILTMTAEKQFEQKIMNLVPYCIVIYIEFSSPGFFRQMYG” it is “not soluble”.

For “RSLVSVHNEWDPLEEVIVGTAVGARVPTADRSVFAVEYAGDYESQEQIPSGAYPDRVLKETEEELHVLAAELTKLGVTVRRPGPRDHSALIKTPDWETDGFHDYCPRDGLLSVGQTIIETPMALRSRFLESLAYKDLLLEYFASGSRWLSAPKPRLTDDSYAPQAPAGERLTDEEPVFDAANVLRFGTDLLYLVSDSGNELGAKWLQSAVGDTYTVHPCRKLYASTHVDSTIVPLRPGLVLTNPSRVNDENMPDFLRSWENITCPELVDIGFTGDKPHCSVWIGMNLLVVRPDLAVVDRRQTALIRLLEKHGMNVLPLQLTHSRTLGGGFHCATLDVRRTGALETYQF”, the “soluble on expression in E. coli” value is recorded as “soluble”. As for “RTDTIMVLHIPSSGKATLMSIPRDSYVEIPGYGMDKINASFTYGGAPLLTQTVENATGLRINHYAEIGMGGLANVVDAVGGIEVCPAEPIDDPLAGLNIAAGCQKVDGPTALGYVRTRHTALGDLDRVQRQREFFAALVNKVTS”, the “soluble on expression in E. coli” value is listed as “not soluble”. The entry for “RVASNLDNKARVTELFKSAYSILTEVEKMAVEGKMPEEEAKALATRLLRNNIYKDNEYVYVADENMMFIAAPLDPQLHGTSFHDFKDGSGNSVGQ” is “not soluble”; for “RVSLLKRKYKRVTTIAERTRRAQSETDRRNYTAASKARTQAQRSSKPQRTRASSRSRRDNSVTVEELMRRRQEQQQTGAKSFAPRPTRTAAQREAAERDLTRRLVNPDPEIHRTRTFDDDLYS” it is “not soluble”; for “RVSNEFPPREYIATVYNRICNYLQIGEGEGFERSFDFDIDAFCRNFRMFPTQVLAAIRILDVAGIWEYREEKTRSRLTIQVQRDELYRMRSEQASDSVLTALMRTYDGLFADYVSIVESELAEKTGLSVDQVYQQLLLLNKAGIVNYIPQKNLPRIYFLTRREDAELLQIPRAAYEDRRDRLKARIDQSLRYIEEENTCRSRMLLAYFGEEQSHNCKLCDVCLRRKDGELHHHEVDDLLHFLEQRLTEETPYVLIADICRELHHHPDVVLKAIRFVMKESWQYSTDGDTVFLTHKLPGGLNL” it is “not soluble”.

With “RYSHSLGVYELLRRILNTPAFAPIDENKKQTVLVAGLLHDIGHAPHSHAFEIYFAKAPNFKKELFIHEEVTTLFVNSEPIKSILKANQIDPKLVAALIDENKELKPSNYWMRQLISSDLDADRMDYLLRD”, the “soluble on expression in E. coli” value was “not soluble”. With “SAASGESGTSGGGGSTEEAFMTFYSEVKQIEKRDSVLTSKNQIERLTRPGSSYFNLNPFEVLQIDPEVTDEEIKKRFRQLSILVHPDKNQDDADRAQKAFEAVDKAYKLLLDQEQKKRALDVIQAGKEYVEHTVKERKKQLKKEGKPTIVEEDDPELFKQAVYKQTMKLFAELEIKRKEREAKEMHERKRQREEEIEAQEKAKREREWQKNFEESRDGRVDSWRNFQANTKGKKEKKNRTFLRPPKVKMEQRE” the entry was “soluble”. The entry for “SAASKLQAFWNHPAGPKTIHFWAPTFKWGISIANVADFAKPPEMISYPQQVVVACSGVIWARWGMVITPINWNLSSVNAAMAVTGVCQLSRKIRHDYFSDEKSATASLEG” is “soluble”; for “SAEKFDHLEEHLEKFVENIRQLGIIVSDFQPSSQAGLNQKLNFIVTGLQDIDKCRQQLHDITVPLEVFEYIDQGRNPQLYTKECLERALAKNEQVKGKIDTMKKFKSLLIQELSKVFPEDMAKYRSIRGEDHPPS” it is “soluble”. The entry for SAQSQRAPDRVLCHSGQQQGLPRAAGGSVPHPRCH is “soluble”. Turning to “SASFVGTPLPESENISLYQSRVTVAELEMLASRFVGRTRVKVAFQAYWSQQREELLPNQQAPSSLIRHTERVLAGVFGASSAKLVLTSALQGRNMQLEEVATIVDEAS”, the “soluble on expression in E. coli” value is listed as “not soluble”.

The values are drawn from the DeepSol protein solubility set.
